Results from the nanobody polyreactivity screen of Harvey et al. (2022).

Assay: yeast display, Sf9 membrane polyspecificity reagent, FACS + sequencing; frameworks hold sequencing errors
In short: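 Nanobodies came from a synthetic yeast display library in Saccharomyces cerevisiae BJ5465, induced with galactose for 36–48 hours and stained for 1 hour at 4 °C with 10% biotinylated, detergent-solubilized Sf9 membrane reagent. Cells were enriched on streptavidin microbeads and then FACS-sorted, with low and high (top ~1%) gates set on anti-HA fluorescence for expression and streptavidin fluorescence for reagent binding. Each polyreactivity label reflects the gate a clone came from. Genes were amplified by colony PCR, sequenced by MiSeq 2 × 250 and filtered by CDR length.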

Sequence	polyreactivity (PSR sort gate)
QVQLVESGGGLVQAGGSLRLSCAASGRIFEHYPMGWYRPAPGKERELVAAISRSGGRTYYADSVKGRFTISRDNAKNTVTLQMNSVKPEDTEVDYCAAVGVYWYVYPHEYDYWGQGSQVTVSS	high polyreactivity
QVQLVESGGGIVQAGGSLRLSCAASGSTFGAYPMAWYRQAPGTERELVAVITRTGSTYADSVKGRFTISRDNAKNTVYLQMNSLKPVDTAVYYCNADYYVSRLYDYQVYSYRYDYWGQGTKVTVSS	high polyreactivity
QVQLVESAGGLVQAGGSLRLSCAASGRIFWGNAMGWYRQAPGKERELVAAITRRGGTKFYADSVKGRFTISRDNAKNTVYLQMNSLIPEDTAVYYCAARRYGQYDGYDSWGQGTQVTVSS	high polyreactivity
QVQLVESGGGLVQAGGSLRLSCAASGSIFNLYAMGWYRQAPGKERELVAGIRWSGGRTYYADSVKGRFTISRDNAKNTVYLQMNSLKPEDTAVYYCNAGGYLSWWNDYDYWGQGTQVTVSS	high polyreactivity
QVQLVESGGGLVQAGGSLRLSCAASGRIFAFYAMGWYRQAPGKERELVAAISWDGGSSYYADSVKGRFTISRDNAKNTVYLQMNSLKPEDTAVYDCNKDLYYAYDYWGQGTQVTVSS	low polyreactivity
QVQLVESGGGLVQAGGSLRLSCAASGITFQTYTMGWYRQAPGKERELVATISWNGGSTYYADSVKGRFTISRDNAKNTVYLQMNSLKPEDNAVYDCATGKWGYFRYNYWGQGTQVTVSS	high polyreactivity
QVQLVESGGGLVQAGGSLRLSCAASGSTFSINAMGWYRQAPGKERELVAAITWRGTRTYYADSVKGRFTISRDNAKNTVYLQMNSLTPEDTAVYYCAATGSGQASYYYWGQGTQVTVSS	high polyreactivity
QVQLVESGGGLVQAGGSLRLSCAASGAIFVFYVMGWYRQAPGKERELVAAISNSGSSTYYADSVKGRFTISRDNAKNTVYLQMNSLKPEDTAVYYCAAEYKIPVGFDYWGQGTQVTVSS	low polyreactivity
QVQRVESGGGLVQAGGSLRLSCAASGFIFEGNAMGWYRQAPGKERELVAAISWSGGRTFYADSVKGRFTISRDHAKNTVYLQMNSLKPEDTAVYYCAAQGRRYGYGDFYYWGQGTQVTVSS	high polyreactivity
QDQLVESGGGLDQEGGSLRLSCAASGIFSYEAMGWNRQAPGKERELVATISRRGSSTYYADSVKGRFTISRDNAKNTVYLQMNSLKPEDSAVYYCAAVRYISPAFLPASSYELGYWGQGSQVTVSS	low polyreactivity
QGQLVESGGGLVQAGGSLRLSCAASGRIFYIYFMGWYRQAPGKEREFVAAISQSGGSTYYADSVKGRFTISRDNAKNTVYLQMNSLKPEDTAVYYCAADRINYQHGYGYWGHGTQVTVSS	low polyreactivity
QVHLVESGGGLVQAGGRLRLSCAASGFTFAHYDMGWYRQAPGKERELVAAITWSGSSTFYADSLKGRFTISRDNAKNTVYLQMYCMKPEDNAVYYCNADYDVSYWFYQDVIYDYWGQGTQVTVSS	low polyreactivity
QVQLVESGGGLVQARGSLRLSCAASGSIFRGYGMRRYIQAPGKERELVAAINYSGGSTYYADSVKGRFTISRDNAKNTVYLQMNSLKPEDTGVYYCNNDYYRQRGEYYYWGQGTQVTVSS	high polyreactivity
QVQLVDSGGGLLQAGASLRLSCAASGITFYINAMGWYRQPPGKERALVAVIDSRGSSTFYADSVKGRFTISRHNAKNSVYLQMNSLKPEYTAVYYCAAEPDTYWYTYDYWGQRTQVTVSS	low polyreactivity
QVQLVESGGGLVQAGGSLRLSCAASGFIFTKYAMGWYRQAPGKERELVAVITSRGTRTYYADSVKGRFTISRDNAKNTVYLQMNSLKPEDTAVYYCAADYQGPYDYWGQGTQVTVSS	high polyreactivity
QVQLVESGGGLVQAGGSLRLSCAASGRTFYRNAMGWSRPAPGKERELVAAISSDDSTNYADSVKGRFTISRDNAKNTVYLQMNSLKPEDTAVYYCNADYYYGYEYDYWGQGTQVTVSS	low polyreactivity

Sequence	polyreactivity (PSR sort gate)
QVQLVESGGGLVQAGGSLRLSCAASGSTFGSYAMGWYRQAPGKERELVAAISGRGGRTSYADSVKGRFTISRDNAKNTVYLQMNSLKPQDTAVYYCAAKRGGLGVTAASLYDYYFWGQGTQVTVSS	high polyreactivity
QVQLLESGVGLVQAGGILRLSCAASGITFSRYTMGWYRQAPGKERELVAANSSAGNTYYADSVNGRFTISRDNAKNTVYLQMNSLKPEDTAVYYCAREYTYYPRWVGYDAYGEDYWGQGTQVTVSS	low polyreactivity
QVQLVESGGGLVQAGGSLRLSCAASGSIFGTYAMGWYRQAPGKERELVARISGGGSTYYADSVKGRFTISRDNAKNTVYLQMNSLKPEDTAVYYCNVRKWAYCSHAIIYNYWGQGTQVTVSS	high polyreactivity
QVQLVESGGGLVQAGGSLRLSCAASGSIFYYYAMGWSRQAPGKERELVAAITWRGGRTYYADSVKGRFTISRDNAKNTVYLQMNSLKPEDTAVYYCAADSRYYQYIYIHGYDYWGQGTQVTVSS	high polyreactivity
QVQLVESGGGLVQAGGSLRLSCAASGNTFYANVMGWYRQAPGKERELVASITWSGGSTYYADSVKGRFTISRDNAKNTVYLQMNSLKPEDTAVYYCATSGDRLVWGQGTQVTVSS	low polyreactivity
QVQLVESGGGLVQAGGSLRLSCAASGRTYRVYAMGWYRQAPGKERELVASITRGGGTYADSVKGRFTISRDNAKNTVYLQMNSLKAEDTAVYYCNARWHRSTGGRQRYDYWGQGTQVTVSS	high polyreactivity
QVQLVESGGGLVQAGGSLRLSCAASGSTIVVNAMGWYRQAPGKERELVAAISSNGGSYYADSVKGRFTISRDNAKNTVYLQMNSLKPEDTAVYYCAADSREEGDYWGQGTQVTVSS	low polyreactivity
QVQLVESGGGLVQAGGSLRLSCAASGSIFRFYAMGWYIQAPGKERELVAGITWSGASTYYAVSVKGRFTISRDNAKNTVYLQMNSLKPEDTAVYYCAAKSLIVRYDSWGQGTQVTVSS	high polyreactivity
QVQLVESGGGLVQAGGSLRLSCAASGFTSDTNAMGWYRQAAGKERELVAAIDSGGGSTYYADSVKGRFTISRENSKNTVYFQMNSLKPEDTAVYYCNAEQTPFVASLRVGEYGYWGQGTQVTVSS	low polyreactivity
QVQLVESGGGLVQAGGSLRLSCAASGFTFSIYAMGWYRQAPGKERELVAAISYRGTSTYYADSVKGRFTISRDNAKNTVYLQMNSLKPEDTAVYYCNKVSSPFVYTVYYWGQGTQVTVSS	high polyreactivity
QVHLVESGGGLVQAGGSLRLSCAASGSIFEAYAMGWSRQAPGKERELVAVISWRGGLTYYPDSVKGRFTISRDNAKNTLYLQMNSLKPDDTAVYYCNKAYWWHQVGLPRNYEYWGQGTQVTVSS	low polyreactivity
QVQLVESGGGFVQAGGSLRFSCAASGRIFPGYAMGWYRQAPGKERELVAAISASGGSTYDADSVKGRFTISRDNAKNPVYLQMNSLKPEDPAVYYCNAVYRLIRFDYWGQGTQVTVSS	high polyreactivity
QVQLVESGGGLVQAGGSLRLSCAASGRIFLYYAMGWYRQAPGKERELVAAISFRGGSTYYADSVKGRFTISRDNAKNTVYLQMNSLKPEDTAVYYCNAVRDWGPSQVYDGMDYWGQGTQVTVSS	low polyreactivity
QVHLVESGGGLVQAGGSLRLSCAASGRIFPAYVMGWYRQAPGKERELVAGITSASSTYYADSVKGRFTISRDNAKNTVYLQMNSLKPEDTAVYYCAAVGYSVRQRYDYWGQGTQVTVSS	high polyreactivity
QVQLVESGGGLVQAGGSLRLSCAASGSTFRRNAMGWYRQAPGKERELVAAITRRGTSTYYADSVKGRFTISRDNAKNTVYLQMNSLKPEDTAVYYCNAPRPYQDGKFGYWGQGTQVTVSS	high polyreactivity
